According to patent US20250152746A1, “BASE EDITING OF ANGPTL3 AND METHODS OF USING SAME FOR TREATMENT OF DISEASE” (Verve Therapeutics, Inc., priority 2020, published 2025):
In the oligonucleotide strings, read from the 5' end, every base follows the letter of its sugar. An asterisk marks phosphorothioate; unmarked linkages are phosphodiester. Other units and linkages are bracketed, terminal groups are in braces. A string of capitals states the bases alone. m = 2'-O-methyl; r = 2'-OH (RNA)

B1: GA241: PCSK9 gRNA; protospacer TGCTGCTGCCCCTGGCGGGT (SEQ ID NO: 234) (nucleic acid)
guide: UGCUGCUGCCCCUGGCGGGUGUUUUAGAGCUAGAAAUAGCAAGUUAAAAUAAGGCUAGUCCGUUAUCAACUUGAAAAAGUGGCACCGAGUCGGUGCUUUU
modifications: sugars from the 5' end m3 r94 m3, linkages s3 o93 s3 (s phosphorothioate, o phosphodiester), T or U not given here
B2: GA228: PCSK9 gRNA; protospacer CGGCTGTACCCACCCGCCAG (SEQ ID NO: 222) (nucleic acid)
guide: CGGCUGUACCCACCCGCCAGGUUUUAGAGCUAGAAAUAGCAAGUUAAAAUAAGGCUAGUCCGUUAUCAACUUGAAAAAGUGGCACCGAGUCGGUGCUUUU
modifications: sugars from the 5' end m3 r94 m3, linkages s3 o93 s3 (s phosphorothioate, o phosphodiester), T or U not given here
B3: GA237: PCSK9 gRNA; protospacer CAACGCCGCCTGCCAGCGCC (SEQ ID NO: 230) (nucleic acid)
guide: CAACGCCGCCUGCCAGCGCCGUUUUAGAGCUAGAAAUAGCAAGUUAAAAUAAGGCUAGUCCGUUAUCAACUUGAAAAAGUGGCACCGAGUCGGUGCUUUU
modifications: sugars from the 5' end m3 r94 m3, linkages s3 o93 s3 (s phosphorothioate, o phosphodiester), T or U not given here
B4: GA234: PCSK9 gRNA; protospacer CGCCTGCCAGCGCCTGGCGA (SEQ ID NO: 252) (nucleic acid)
guide: mC*mG*mC*rCrUrGrCrCrArGrCrGrCrCrUrGrGrCrGrArGrUrUrUrUrArGrArGrCrUrArGrArArArUrArGrCrArArGrUrUrArArArArUrArArGrGrCrUrArGrUrCrCrGrUrUrArUrCrArArCrUrUrGrArArArArArGrUrGrGrCrArCrCrGrArGrUrCrGrGrUrGrCrU*mU*mU*mU
B5: GA245: PCSK9 gRNA; protospacer GTGCTGCTGCCCCTGGCGGG (SEQ ID NO: 238) (nucleic acid)
guide: GUGCUGCUGCCCCUGGCGGGGUUUUAGAGCUAGAAAUAGCAAGUUAAAAUAAGGCUAGUCCGUUAUCAACUUGAAAAAGUGGCACCGAGUCGGUGCUUUU
modifications: sugars from the 5' end m3 r94 m3, linkages s3 o93 s3 (s phosphorothioate, o phosphodiester), T or U not given here
B6: GA230: PCSK9 gRNA; protospacer AGTAGAGGCAGGCATCGTCC (SEQ ID NO: 224) (nucleic acid)
guide: AGUAGAGGCAGGCAUCGUCCGUUUUAGAGCUAGAAAUAGCAAGUUAAAAUAAGGCUAGUCCGUUAUCAACUUGAAAAAGUGGCACCGAGUCGGUGCUUUU
modifications: sugars from the 5' end m3 r94 m3, linkages s3 o93 s3 (s phosphorothioate, o phosphodiester), T or U not given here
B7: GA240: PCSK9 gRNA; protospacer TGCCAGCGCCTGGCGAGGGC (SEQ ID NO: 233) (nucleic acid)
guide: UGCCAGCGCCUGGCGAGGGCGUUUUAGAGCUAGAAAUAGCAAGUUAAAAUAAGGCUAGUCCGUUAUCAACUUGAAAAAGUGGCACCGAGUCGGUGCUUUU
modifications: sugars from the 5' end m3 r94 m3, linkages s3 o93 s3 (s phosphorothioate, o phosphodiester), T or U not given here
B8: GA162: PCSK9 gRNA; protospacer GGACGGCGACTACGAGGAGC (SEQ ID NO: 156) (nucleic acid)
guide: mG*mG*mA*rCrGrGrCrGrArCrUrArCrGrArGrGrArGrCrGrUrUrUrUrArGrArGrCrUrArGrArArArUrArGrCrArArGrUrUrArArArArUrArArGrGrCrUrArGrUrCrCrGrUrUrArUrCrArArCrUrUrGrArArArArArGrUrGrGrCrArCrCrGrArGrUrCrGrGrUrGrCrU*mU*mU*mU
B9: GA161: PCSK9 gRNA; protospacer GGACGAGGACGGCGACTACG (SEQ ID NO: 155) (nucleic acid)
guide: mG*mG*mA*rCrGrArGrGrArCrGrGrCrGrArCrUrArCrGrGrUrUrUrUrArGrArGrCrUrArGrArArArUrArGrCrArArGrUrUrArArArArUrArArGrGrCrUrArGrUrCrCrGrUrUrArUrCrArArCrUrUrGrArArArArArGrUrGrGrCrArCrCrGrArGrUrCrGrGrUrGrCrU*mU*mU*mU
B10: GA236: PCSK9 gRNA; protospacer AGCCCTCGCCAGGCGCTGGC (SEQ ID NO: 229) (nucleic acid)
guide: AGCCCUCGCCAGGCGCUGGCGUUUUAGAGCUAGAAAUAGCAAGUUAAAAUAAGGCUAGUCCGUUAUCAACUUGAAAAAGUGGCACCGAGUCGGUGCUUUU
modifications: sugars from the 5' end m3 r94 m3, linkages s3 o93 s3 (s phosphorothioate, o phosphodiester), T or U not given here
B11: GA229: PCSK9 gRNA; protospacer GTCGTGCTGGTCACCGCTGC (SEQ ID NO: 223) (nucleic acid)
guide: GUCGUGCUGGUCACCGCUGCGUUUUAGAGCUAGAAAUAGCAAGUUAAAAUAAGGCUAGUCCGUUAUCAACUUGAAAAAGUGGCACCGAGUCGGUGCUUUU
modifications: sugars from the 5' end m3 r94 m3, linkages s3 o93 s3 (s phosphorothioate, o phosphodiester), T or U not given here
B12: GA239: PCSK9 gRNA; protospacer CCGCCTGCCAGCGCCTGGCG (SEQ ID NO: 232) (nucleic acid)
guide: CCGCCUGCCAGCGCCUGGCGGUUUUAGAGCUAGAAAUAGCAAGUUAAAAUAAGGCUAGUCCGUUAUCAACUUGAAAAAGUGGCACCGAGUCGGUGCUUUU
modifications: sugars from the 5' end m3 r94 m3, linkages s3 o93 s3 (s phosphorothioate, o phosphodiester), T or U not given here
B13: GA233: PCSK9 gRNA; protospacer GCGGCTGTACCCACCCGCCA (SEQ ID NO: 227) (nucleic acid)
guide: GCGGCUGUACCCACCCGCCAGUUUUAGAGCUAGAAAUAGCAAGUUAAAAUAAGGCUAGUCCGUUAUCAACUUGAAAAAGUGGCACCGAGUCGGUGCUUUU
modifications: sugars from the 5' end m3 r94 m3, linkages s3 o93 s3 (s phosphorothioate, o phosphodiester), T or U not given here

Experiments:
[1] = system: PCSK9 gene; assay: PCSK9 gRNA/SpCas9 editing in primary human hepatocytes (Tables 2, 4); format: cell-based; details: SpCas9 mRNA MS002 1:1 by weight; for Human Primary Hepatocyte Editing % 100: 100 ng/RNA/mL; for Human Primary Hepatocyte Editing % 500: 500 ng/RNA/mL; for Human Primary Hepatocyte Editing % 2500: 2500 ng/RNA/mL
In short: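 Editing at the PCSK9 site quantified by NGS of PCR amplicons from genomic DNA. Input: SpCas9 mRNA with gRNA, 1:1 by weight, transfected into primary human hepatocytes at 2500, 500 or 100 ng RNA/mL (tracr-modified guides at 2500, 1250, 500, 250 ng/mL).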

[2] = system: PCSK9 gene; assay: PCSK9 gRNA/SpCas9 editing in primary cynomolgus hepatocytes (Tables 2, 22); format: cell-based, cynomolgus monkey; details: SpCas9 mRNA MS002 1:1 by weight; for Cyno Primary Hepatocyte Editing % 100: 100 ng/RNA/mL; for Cyno Primary Hepatocyte Editing % 500: 500 ng/RNA/mL; for Cyno Primary Hepatocyte Editing % 2500: 2500 ng/RNA/mL

Row | Molecule | Human Primary Hepatocyte Editing % 100 [1] | Human Primary Hepatocyte Editing % 500 [1] | Human Primary Hepatocyte Editing % 2500 [1] | Cyno Primary Hepatocyte Editing % 100 [2] | Cyno Primary Hepatocyte Editing % 500 [2] | Cyno Primary Hepatocyte Editing % 2500 [2]
1 | B1 | 0.61% | 1.49% | 5.39% | 0.97% | 2.94% | 16.11%
2 | B2 | 5.9% | 10.96% | 37.1% | 1.95% | 7.89% | 31.36%
3 | B3 | 4.53% | 15.83% | 36.78% | 2.17% | 13.46% | 46.01%
4 | B4 | 0.06% | 2.29% | 5.45% | 0.21% | 1.53% | 6.44%
5 | B5 | 1.68% | 2.97% | 2.9% | 0.19% | 0.88% | 7.07%
6 | B6 | – | 12.83% | 29.31% | – | – | 35.86%
7 | B7 | 1.05% | 0.24% | 7.94% | 0.52% | 1.9% | 10.62%
8 | B8 | 2.14% | 12.97% | 42.8% | 1.62% | 11.18% | 28.26%
9 | B9 | 3.65% | 8.74% | 35.08% | 4.52% | 14.98% | 48.24%
10 | B10 | 6.92% | 3.13% | 22.41% | 2.31% | 11.62% | 37.44%
11 | B11 | 0.47% | 6.85% | 30.41% | 0.75% | 5.39% | 34.28%
12 | B12 | 0.06% | 1.73% | 3.49% | 0.02% | 0.55% | 4.55%
13 | B13 | 3.08% | 5.39% | 19.97% | 2.38% | 10.84% | 37.8%
